This is an account of results in paper PMC3714855.

Assay [1] concerns the target GluA1(E809W) with a C-terminal GFP tag (rat). Put plainly: SEC. For orientation: In gel filtration, larger molecules generally elute earlier.
For assay [2], the target named is GluA1(L795W) with a C-terminal GFP tag (rat). Put plainly: SEC.
Assay [3] has as its target GluA2(Q)(A806W) with a C-terminal GFP tag (rat). Put plainly: SEC.
The target in assay [4] is GluA2(Q)(E813W) with a C-terminal GFP tag (rat). Put plainly: SEC.
Assay [5] deals with GluA2(Q)(G802W) with a C-terminal GFP tag (rat). Put plainly: SEC.
Assay [6] addresses GluA2(Q)(L811W) with a C-terminal GFP tag (rat). Put plainly: SEC.
Assay [7] addresses GluA2(Q)(V795W) with a C-terminal GFP tag (rat). Put plainly: SEC.
Another assay addresses GluA2(R)(E813W) (rat). Put plainly: native gel or EMSA. (A gel shift assay detects complexes by their altered migration in electrophoresis.)
The next assay addresses GluA2(R)(G802W) (rat). Put plainly: native gel or EMSA.
The target of another assay is GluA2(R)(L811W) (rat). Put plainly: native gel or EMSA.
The target of another assay is GluA2(R)(V795W) (rat). Put plainly: native gel or EMSA.
Assay [8] has as its target GluA2(R)-ΔM4, untagged (rat). Put plainly: native gel or EMSA.
The next assay deals with HA-GluA2(R)-ΔM4 (rat). Put plainly: native gel or EMSA.
In assay [9] the target is HA-tagged wild-type GluA2(R) (rat). Put plainly: native gel or EMSA.
The target of assay [10] is wild-type GluA1 with a C-terminal GFP tag (rat). Put plainly: SEC.
The target in assay [11] is wild-type GluA2(Q) with a C-terminal GFP tag (rat). Put plainly: SEC.
Assay [12] addresses wild-type GluA2(R), untagged (rat). Put plainly: native gel or EMSA.

Values joined by “and” are separate entries in the source; they are usually repeats but may differ in a detail not shown here. Equal values may be shown once.

With “GluA1(E809W) with a C-terminal GFP tag (receptor)”, the stoichiometry N (commonly the number of molecules, sites or subunits per partner or assembly) in assay [1] came out at 2.
Regarding “GluA1(L795W) with a C-terminal GFP tag (receptor)”, in assay [2], the stoichiometry N turned out to be 2.
The substance “GluA2(Q)(A806W) with a C-terminal GFP tag (receptor)” gave a stoichiometry N in assay [3] of 2.
Take “GluA2(Q)(E813W) with a C-terminal GFP tag (receptor)”: the stoichiometry N in assay [4] was determined as 2.
In turn, “GluA2(Q)(G802W) with a C-terminal GFP tag (receptor)” had a stoichiometry N in [5] of 2.
For the substance “GluA2(Q)(L811W) with a C-terminal GFP tag (receptor)”, the stoichiometry N in assay [6] is 4.
“GluA2(Q)(V795W) with a C-terminal GFP tag (receptor)” registered a stoichiometry N in [7] of 2.
GluA2(R)(E813W) (receptor): the stoichiometry N in the assay with GluA2(R)(E813W) (rat) turned out to be 2.
In the assay with GluA2(R)(G802W) (rat), GluA2(R)(G802W) (receptor) showed a stoichiometry N of 2.
Regarding GluA2(R)(L811W) (receptor), the stoichiometry N in the assay with GluA2(R)(L811W) (rat) is 4 and 2.
Consider GluA2(R)(V795W) (receptor), for which, in the assay with GluA2(R)(V795W) (rat), the stoichiometry N amounted to 2.
Regarding “GluA2(R)-ΔM4, untagged (domain or fragment)”, the stoichiometry N in assay [8] was found to be 2.
Take HA-GluA2(R)-ΔM4 (domain or fragment): the stoichiometry N with HA-GluA2(R)-ΔM4 (rat) amounted to 2.
On to HA-tagged wild-type GluA2(R) (receptor), for which the stoichiometry N in assay [9] was 4 and 2.
“wild-type GluA1 with a C-terminal GFP tag (receptor)” yielded a stoichiometry N in assay [10] of 4.
In turn, “wild-type GluA2(Q) with a C-terminal GFP tag (receptor)” displayed a stoichiometry N in assay [11] of 4.
wild-type GluA2(R), untagged (receptor): the stoichiometry N in assay [12] is 4 and 2.
